The Immune Epitope Database (IEDB)

Columns and labels:
Conditions in all cases: source organism: Vaccinia virus WR
HLA-A*02:06 [1] = test: IEDB peptide-MHC binding, purified MHC/competitive/radioactivity; ≥ and ≤ were set here for values at or beyond the usual limits of such assays
HLA-A*02:03 = test: as above
HLA-A*02:02 = test: as above
HLA-A*68:02 [2] = test: IEDB peptide-MHC binding, purified MHC/competitive/radioactivity; filed as Kd, often an IC50 or EC50 that approximates it; ≥ and ≤ were set here for values at or beyond the usual limits of such assays
HLA-A*01:01 = test: IEDB peptide-MHC binding, purified MHC/competitive/radioactivity; ≥ and ≤ were set here for values at or beyond the usual limits of such assays
HLA-A*26:01 = test: IEDB peptide-MHC binding, purified MHC/competitive/radioactivity; filed as Kd, often an IC50 or EC50 that approximates it; ≥ and ≤ were set here for values at or beyond the usual limits of such assays
HLA-A*30:02 [3] = test: as above
HLA-A*29:02 = test: as above
HLA-A*02:06 [4] = test: as above
HLA-A*03:01 = test: IEDB peptide-MHC binding, purified MHC/competitive/radioactivity; ≥ and ≤ were set here for values at or beyond the usual limits of such assays
HLA-A*68:01 [5] = test: as above
HLA-A*11:01 = test: as above
HLA-A*31:01 [6] = test: IEDB peptide-MHC binding, purified MHC/competitive/radioactivity; filed as Kd, often an IC50 or EC50 that approximates it; ≥ and ≤ were set here for values at or beyond the usual limits of such assays
HLA-A*33:01 = test: as above
HLA-B*07:02 = test: IEDB peptide-MHC binding, purified MHC/competitive/radioactivity; ≥ and ≤ were set here for values at or beyond the usual limits of such assays
HLA-B*54:01 = test: IEDB peptide-MHC binding, purified MHC/competitive/radioactivity; filed as Kd, often an IC50 or EC50 that approximates it; ≥ and ≤ were set here for values at or beyond the usual limits of such assays
HLA-B*35:01 = test: as above
HLA-B*51:01 = test: as above
HLA-B*53:01 = test: as above
HLA-A*24:02 = test: IEDB peptide-MHC binding, purified MHC/competitive/radioactivity; ≥ and ≤ were set here for values at or beyond the usual limits of such assays
HLA-A*23:01 = test: as above
HLA-A*68:02 [7] = test: as above
HLA-A*30:02 [8] = test: as above
HLA-A*31:01 [9] = test: as above
HLA-A*68:01 [10] = test: IEDB peptide-MHC binding, purified MHC/competitive/radioactivity; filed as Kd, often an IC50 or EC50 that approximates it; ≥ and ≤ were set here for values at or beyond the usual limits of such assays

Work on GLNDYLHSV yielded an IC50 (HLA-A*02:06 [1]) of 3.9 nM, an IC50 (HLA-A*02:03) of 1.4 nM and an IC50 (HLA-A*02:02) of 0.74 nM. For the same sequence, the Kd (HLA-A*68:02 [2]) was 2660 nM.

QSDTVFDYY was tested, and the IC50 (HLA-A*01:01) was 1 nM, the Kd (HLA-A*26:01) was ≥ 50000 nM and the Kd (HLA-A*30:02 [3]) was 2950 nM. The Kd (HLA-A*29:02) was ≥ 50000 nM.

In the case of SMHFYGWSL, the Kd (HLA-A*02:06 [4]) is reported as 2040 nM.

AVFKDSFLRK showed an IC50 (HLA-A*03:01) of 8.2 nM, an IC50 (HLA-A*68:01 [5]) of 47 nM and an IC50 (HLA-A*11:01) of 121 nM. For the same sequence, the Kd (HLA-A*31:01 [6]) was 686 nM and the Kd (HLA-A*33:01) was ≥ 42400 nM.

KPKPAVRFAI was tested, and the IC50 (HLA-B*07:02) was 0.18 nM, the Kd (HLA-B*54:01) was 680 nM and the Kd (HLA-B*35:01) was ≥ 36300 nM. The Kd (HLA-B*51:01) was ≥ 50000 nM and the Kd (HLA-B*53:01) was ≥ 20500 nM.

With RYRFAFLYLL the IC50 (HLA-A*24:02) was 166 nM, the IC50 (HLA-A*23:01) was 41 nM and the Kd (HLA-A*29:02) was 16200 nM.

ILDDNLYKV was tested, and the IC50 (HLA-A*02:06 [1]) was 8.9 nM, the IC50 (HLA-A*02:03) was 61 nM and the IC50 (HLA-A*02:02) was 4.5 nM. The Kd (HLA-A*68:02 [2]) was ≥ 48300 nM.

Sequence FLTSVINRV has an IC50 (HLA-A*02:06 [1]) of 4.8 nM, an IC50 (HLA-A*02:03) of 1.4 nM and an IC50 (HLA-A*02:02) of 0.11 nM. The IC50 (HLA-A*68:02 [7]) was 0.42 nM.

In the case of VSVNNVCHMY, the IC50 (HLA-A*30:02 [8]) is reported as 3.7 nM, the IC50 (HLA-A*01:01) is reported as 130 nM and the Kd (HLA-A*26:01) is reported as 4260 nM. The Kd (HLA-A*29:02) was 1080 nM.

KVMFVIRFK gave an IC50 (HLA-A*31:01 [9]) of 4.9 nM, an IC50 (HLA-A*03:01) of 1.4 nM and an IC50 (HLA-A*68:01 [5]) of 30 nM. The IC50 (HLA-A*11:01) was 7.3 nM and the Kd (HLA-A*33:01) was 857 nM.

For NLFDIPLLTV, the IC50 (HLA-A*02:06 [1]) was 1.5 nM, the IC50 (HLA-A*02:03) was 0.25 nM and the IC50 (HLA-A*02:02) was 0.1 nM. It also gave an IC50 (HLA-A*68:02 [7]) of 8.1 nM.

KVLHVTDTNK gave an IC50 (HLA-A*31:01 [9]) of 466 nM, an IC50 (HLA-A*03:01) of 8.1 nM and an IC50 (HLA-A*11:01) of 10 nM. For the same sequence, the Kd (HLA-A*68:01 [10]) was 3020 nM and the Kd (HLA-A*33:01) was ≥ 50000 nM.

For GTIAGGVCYY, the IC50 (HLA-A*03:01) was 132 nM, the IC50 (HLA-A*11:01) was 4.5 nM and the Kd (HLA-A*31:01 [6]) was 8450 nM. The Kd (HLA-A*68:01 [10]) was 11100 nM and the Kd (HLA-A*33:01) was ≥ 38600 nM.

In the case of FGDSKEPVPY, the IC50 (HLA-A*01:01) is reported as 137 nM, the Kd (HLA-A*26:01) is reported as 5680 nM and the Kd (HLA-A*30:02 [3]) is reported as 8170 nM. For the same sequence, the Kd (HLA-A*29:02) was 564 nM.

IVFNLPVSK was tested, and the IC50 (HLA-A*31:01 [9]) was 23 nM, the IC50 (HLA-A*03:01) was 2.2 nM and the IC50 (HLA-A*68:01 [5]) was 5.4 nM. For the same sequence, the IC50 (HLA-A*11:01) was 4.6 nM and the Kd (HLA-A*33:01) was 3170 nM.
